From article PMC2749851, “Interaction of ZEB and Histone Deacetylase with the PLDLS-binding cleft region of monomeric C-terminal Binding Protein 2” (BMC Molecular Biology, 2009)

Target: T1, H6-CtBP2 (UniProt P56545 1-445)
T1 construct: also called H6-tagged wt CtBP2; wt CtBP2; source: purified
Test: pull-down; GST fusion proteins charged on glutathione-agarose beads, incubated with purified H6-CtBP2 or H6-RR-CtBP2 (~0.1 μg) in 200 μl of 25 mM Tris-HCl pH 7.5, 0.25 M NaCl, 0.5% Triton X-100, 0.5 mM DTT for 1 h at 4°C; Western blot with the CtBP2 antibody
Conditions: both partners purified

B1: GST-ZEB101 (domain or fragment, UniProt P37275-1 680-780, looked up)
chain: PLKMTNSPVLPVGSTTNGSRSSTPSPSPLNLSSSRNTQGYLYTAEGAQEEPQVEPLDLSLPKQQGELLERSTITSVYQNSVYSVQEEPLNLSCAKKEPQKD
notes: ZEB (ZEB1), GenBank NM_030751, aa 680-780; transferred from pGFP-ZEB101 to a pGST vector at XhoI/EcoRI; also called wt ZEB101; source: induced with 1 mM IPTG; lysate loaded onto glutathione-agarose beads
binding result: binds
